These results are taken from article PMC12568027.

The assay addresses HIV-2 GL-AN CA P14C/E45C/W184A/M185A (HIV-2 GL-AN).

“HIV-2 GL-AN CA P14C/E45C/W184A/M185A (natural protein)”: the stoichiometry N was 6.

The term stoichiometry N denotes a count of units in the complex or per binding partner.
